Response data for 13 variants are collected here from paper PMC10281526, “Polydom/SVEP1 binds to Tie1 and promotes migration of lymphatic endothelial cells” (The Journal of Cell Biology, 2023).

The labels stand for the following.
B1: recombinant Tie1 extracellular domain, Fc fusion protein [not stated] / GST fusion protein of the 20th CCP domain of Polydom [mouse] (parent complex)
chain 1: AVDLTLLANLRLTDPQRFFLTCVSGEAGAGRGSDAWGPPLLLEKDDRIVRTPPGPPLRLARNGSHQVTLRGFSKPSDLVGVFSCVGGAGARRTRVIYVHNSPGAHLLPDKVTHTVNKGDTAVLSARVHKEKQTDVIWKSNGSYFYTLDWHEAQDGRFLLQLPNVQPPSSGIYSATYLEASPLGSAFFRLIVRGCGAGRWGPGCTKECPGCLHGGVCHDHDGECVCPPGFTGTRCEQACREGRFGQSCQEQCPGISGCRGLTFCLPDPYGCSCGSGWRGSQCQEACAPGHFGADCRLQCQCQNGGTCDRFSGCVCPSGWHGVHCEKSDRIPQILNMASELEFNLETMPRINCAAAGNPFPVRGSIELRKPDGTVLLSTKAIVEPEKTTAEFEVPRLVLADSGFWECRVSTSGGQDSRRFKVNVKVPPVPLAAPRLLTKQSRQLVVSPLVSFSGDGPISTVRLHYRPQDSTMDWSTIVVDPSENVTLMNLRPKTGYSVRVQLSRPGEGGEGAWGPPTLMTTDCPEPLLQPWLEGWHVEGTDRLRVSWSLPLVPGPLVGDGFLLRLWDGTRGQERRENVSSPQARTALLTGLTPGTHYQLDVQLYHCTLLGPASPPAHVLLPPSGPPAPRHLHAQALSDSEIQLTWKHPEALPGPISKYVVEVQVAGGAGDPLWIDVDRPEETSTIIRGLNASTRYLFRMRASIQGLGDWSNTVEESTLGNGLQAEGPVQESRAAEEGLDQ
chain 2: IHCSDPQPIENGFVEGADYRYGAMIIYSCFPGFQVLGHAMQTCEESGWSSSSPTCVP

In this assay the parent is B1. Kind of assay: solid-phase binding assay; parent: 1.25; read off a plot.
As for chain 2 IHCSDPQPIENGFVEGAAYRYGAMIIYSCFPGFQVLGHAMQTCEESGWSSSSPTCVP, the response was around 1.1 A490. Consider chain 2 IHCSDPQPIENGFAEGADYRYGAMIIYSCFPGFQVLGHAMQTCEESGWSSSSPTCVP, for which the response was around 0.53 A490. Regarding chain 2 IHCSDPQPIENGFVEGADYRAGAMIIYSCFPGFQVLGHAMQTCEESGWSSSSPTCVP, the response is around 1.4 A490. With chain 2 IHCSDPQPIENGFVEGADYRYGGMIIYSCFPGFQVLGHAMQTCEESGWSSSSPTCVP, the response was around 1.4 A490. As for chain 2 IHCSDPQPIENGFVEGADARYGAMIIYSCFPGFQVLGHAMQTCEESGWSSSSPTCVP, the response is around 1.4 A490. Take chain 2 IHCSDPQPIENGFVEGADYRYAAMIIYSCFPGFQVLGHAMQTCEESGWSSSSPTCVP: the response was around 1.1 A490.

For the variant chain 2 IHCSDPQPIENGFVEGADYRYGAAIIYSCFPGFQVLGHAMQTCEESGWSSSSPTCVP, the response was around 1.2 A490. As for chain 2 IHCSDPQPIENGFVEGADYRYGAMAIYSCFPGFQVLGHAMQTCEESGWSSSSPTCVP, the figure is around 0.6 A490; as for chain 2 IHCSDPQPIENGFVAGADYRYGAMIIYSCFPGFQVLGHAMQTCEESGWSSSSPTCVP, around 0.04 A490.

As for chain 2 IHCSDPQPIENGFVEGADYRYGAMIAYSCFPGFQVLGHAMQTCEESGWSSSSPTCVP, the response was around 1.3 A490. As to chain 2 IHCSDPQPIENGFVEGADYAYGAMIIYSCFPGFQVLGHAMQTCEESGWSSSSPTCVP, the response was around 1.3 A490. As for chain 2 IHCSDPQPIENGFVEGGDYRYGAMIIYSCFPGFQVLGHAMQTCEESGWSSSSPTCVP, the figure is around 0.93 A490; as for chain 2 IHCSDPQPIENGFVEAADYRYGAMIIYSCFPGFQVLGHAMQTCEESGWSSSSPTCVP, around 0.07 A490.
